Experiments:
[1] = biological target: HLA-Cw*1802 (Cw18) (human); experiment: Luminex, regular beads (#7), 1:8
[2] = biological target: HLA-Cw*0501 (Cw5) (human); experiment: Luminex, regular beads (#7), 1:8
HLA-B*8201 (B82) (human) [3] = experiment: Luminex, regular beads (#7), 1:8
[4] = biological target: HLA-Cw*0302 (Cw10) (human); experiment: Luminex, regular beads (#7), 1:8
[5] = biological target: Albumin (negative control beads) (human or bovine); experiment: Luminex, regular beads (#7), 1:8
[6] = biological target: HLA-Cw*0602 (Cw6) (human); experiment: Luminex, regular beads (#7), 1:8
[7] = biological target: HLA-Cw*0702 (Cw7) (human); experiment: Luminex, regular beads (#7), 1:8
[8] = biological target: HLA-Cw*1701 (Cw17) (human); experiment: Luminex, regular beads (#7), 1:8
[9] = biological target: HLA-Cw*1502 (Cw15) (human); experiment: Luminex, regular beads (#7), 1:8
[10] = biological target: HLA-Cw*0202 (Cw2) (human); experiment: Luminex, regular beads (#7), 1:8
[11] = biological target: HLA-Cw*0304 (Cw10) (human); experiment: Luminex, regular beads (#7), 1:8
[12] = biological target: HLA-Cw*0401 (Cw4) (human); experiment: Luminex, regular beads (#7), 1:8
[13] = biological target: HLA-Cw*0102 (Cw1) (human); experiment: Luminex, regular beads (#7), 1:8
[14] = biological target: HLA-Cw*1402 (Cw14) (human); experiment: Luminex, regular beads (#7), 1:8
[15] = biological target: HLA-Cw*0303 (Cw9) (human); experiment: Luminex, regular beads (#7), 1:8
[16] = biological target: HLA-Cw*1802 (Cw18) (human); experiment: Luminex, iBead vs regular bead MFI, 1:8
[17] = biological target: HLA-Cw*0501 (Cw5) (human); experiment: Luminex, iBead vs regular bead MFI, 1:8
HLA-B*8201 (B82) (human) [18] = experiment: Luminex, iBead vs regular bead MFI, 1:8
[19] = biological target: Albumin (negative control beads) (human or bovine); experiment: Luminex, iBead vs regular bead MFI, 1:8
[20] = biological target: HLA-Cw*1601 (Cw16) (human); experiment: Luminex, iBead vs regular bead MFI, 1:8
[21] = biological target: HLA-Cw*1203 (Cw12) (human); experiment: Luminex, iBead vs regular bead MFI, 1:8
[22] = biological target: HLA-Cw*0702 (Cw7) (human); experiment: Luminex, iBead vs regular bead MFI, 1:8
[23] = biological target: HLA-Cw*1701 (Cw17) (human); experiment: Luminex, iBead vs regular bead MFI, 1:8
[24] = biological target: HLA-Cw*1502 (Cw15) (human); experiment: Luminex, iBead vs regular bead MFI, 1:8
[25] = biological target: HLA-Cw*0202 (Cw2) (human); experiment: Luminex, iBead vs regular bead MFI, 1:8
[26] = biological target: HLA-Cw*0304 (Cw10) (human); experiment: Luminex, iBead vs regular bead MFI, 1:8
[27] = biological target: HLA-Cw*0401 (Cw4) (human); experiment: Luminex, iBead vs regular bead MFI, 1:8
[28] = biological target: HLA-Cw*0801 (Cw8) (human); experiment: Luminex, iBead vs regular bead MFI, 1:8
[29] = biological target: HLA-Cw*0102 (Cw1) (human); experiment: Luminex, iBead vs regular bead MFI, 1:8
[30] = biological target: HLA-Cw*1402 (Cw14) (human); experiment: Luminex, iBead vs regular bead MFI, 1:8
[31] = biological target: HLA-Cw*0303 (Cw9) (human); experiment: Luminex, iBead vs regular bead MFI, 1:8
HLA-B*1301 (B13) (human) = experiment: Luminex regular beads (#7), IVIg diluted 1:8
HLA-B*1502 (B75) (human) = experiment: Luminex regular beads (#7), IVIg diluted 1:8
HLA-B*1510 (B71) (human) = experiment: Luminex regular beads (#7), IVIg diluted 1:8
HLA-B*1512 (B76) (human) = experiment: Luminex regular beads (#7), IVIg diluted 1:8
HLA-B*0801 (B8) (human) = experiment: Luminex regular beads (#7), IVIg diluted 1:8
HLA-B*1302 (B13) (human) = experiment: Luminex regular beads (#7), IVIg diluted 1:8
HLA-B*1516 (B63) (human) = experiment: Luminex regular beads (#7), IVIg diluted 1:8
HLA-B*1511 (B75) (human) = experiment: Luminex regular beads (#7), IVIg diluted 1:8
HLA-B*1801 (B18) (human) = experiment: Luminex regular beads (#7), IVIg diluted 1:8
HLA-B*1401 (B64) (human) = experiment: Luminex regular beads (#7), IVIg diluted 1:8
[32] = biological target: Serum albumin on negative control beads (HSA/BSA) (human or bovine); experiment: Luminex regular beads (#7), IVIg diluted 1:8
HLA-B*0702 (B7) (human) = experiment: Luminex regular beads (#7), IVIg diluted 1:8
HLA-B*1513 (B77) (human) = experiment: Luminex regular beads (#7), IVIg diluted 1:8
HLA-B*1503 (B72) (human) = experiment: Luminex regular beads (#7), IVIg diluted 1:8
[33] = biological target: HLA-Cw*1601 (Cw16) (human); experiment: Luminex, regular beads (#7), 1:8
[34] = biological target: HLA-Cw*1203 (Cw12) (human); experiment: Luminex, regular beads (#7), 1:8
[35] = biological target: HLA-Cw*0302 (Cw10) (human); experiment: Luminex, iBead vs regular bead MFI, 1:8
[36] = biological target: HLA-Cw*0602 (Cw6) (human); experiment: Luminex, iBead vs regular bead MFI, 1:8

IVIg GamaSTAN S/D (Talecris Biotherapeutics, USA) (antibody)
MFI [1]: 7980 MFI
MFI [2]: 6970 MFI
MFI (HLA-B*8201 (B82) (human) [3]): 3860 MFI
MFI [4]: 4010 MFI
MFI [5]: 3790 MFI
MFI [6]: 9170 MFI
MFI [7]: 7620 MFI
MFI [8]: 7860 MFI
MFI [9]: 6170 MFI
MFI [10]: 7180 MFI
MFI [11]: 3710 MFI
MFI [12]: 6290 MFI
MFI [13]: 4540 MFI
MFI [14]: 4270 MFI
MFI [15]: 2860 MFI
Difference % [16]: -2%
Difference % [17]: -9%
Difference % (HLA-B*8201 (B82) (human) [18]): 10%
Difference % [19]: 33%
Difference % [20]: -45%
Difference % [21]: -54%
Difference % [22]: -54%
Difference % [23]: 22%
Difference % [24]: 24%
Difference % [25]: 13%
Difference % [26]: -26%
Difference % [27]: -20%
Difference % [28]: -32%
Difference % [29]: -38%
Difference % [30]: -57%
Difference % [31]: -9%
MFI (HLA-B*1301 (B13) (human)): 2240 MFI
MFI (HLA-B*1502 (B75) (human)): 526 MFI
MFI (HLA-B*1510 (B71) (human)): 857 MFI
MFI (HLA-B*1512 (B76) (human)): 2660 MFI
MFI (HLA-B*0801 (B8) (human)): 884 MFI
MFI (HLA-B*1302 (B13) (human)): 2220 MFI
MFI (HLA-B*1516 (B63) (human)): 3540 MFI
MFI (HLA-B*1511 (B75) (human)): 2820 MFI
MFI (HLA-B*1801 (B18) (human)): 0 MFI
MFI (HLA-B*1401 (B64) (human)): 1750 MFI
MFI [32]: 3790 MFI
MFI (HLA-B*0702 (B7) (human)): 2220 MFI
MFI (HLA-B*1513 (B77) (human)): 1240 MFI
MFI (HLA-B*1503 (B72) (human)): 689 MFI

IVIg Gamunex-C Lot NKLK1 (antibody)
MFI [1]: 7160 MFI
MFI [2]: 5980 MFI
MFI (HLA-B*8201 (B82) (human) [3]): 4780 MFI
MFI [4]: 4130 MFI
MFI [5]: 10300 MFI
MFI [6]: 10600 MFI
MFI [33]: 6850 MFI
MFI [34]: 5610 MFI
MFI [7]: 10500 MFI
MFI [8]: 5640 MFI
MFI [9]: 3690 MFI
MFI [10]: 6810 MFI
MFI [11]: 4430 MFI
MFI [12]: 6480 MFI
MFI [13]: 4310 MFI
MFI [14]: 6160 MFI
MFI [15]: 3020 MFI
Difference % [16]: -79%
Difference % [17]: -66%
Difference % (HLA-B*8201 (B82) (human) [18]): -104%
Difference % [35]: -57%
Difference % [19]: -24%
Difference % [36]: -80%
Difference % [20]: -77%
Difference % [21]: -65%
Difference % [22]: -77%
Difference % [23]: -42%
Difference % [24]: -68%
Difference % [25]: -59%
Difference % [26]: -59%
Difference % [27]: -71%
Difference % [28]: -90%
Difference % [29]: -75%
Difference % [31]: -45%
MFI (HLA-B*1301 (B13) (human)): 3520 MFI
MFI (HLA-B*1502 (B75) (human)): 1540 MFI
MFI (HLA-B*1510 (B71) (human)): 1620 MFI
MFI (HLA-B*0801 (B8) (human)): 1760 MFI
MFI (HLA-B*1302 (B13) (human)): 2530 MFI
MFI (HLA-B*1516 (B63) (human)): 3130 MFI
MFI (HLA-B*1511 (B75) (human)): 3820 MFI
MFI (HLA-B*1801 (B18) (human)): 567 MFI
MFI (HLA-B*1401 (B64) (human)): 2280 MFI
MFI [32]: 10300 MFI
MFI (HLA-B*0702 (B7) (human)): 837 MFI
MFI (HLA-B*1513 (B77) (human)): 3210 MFI
MFI (HLA-B*1503 (B72) (human)): 2300 MFI

IVIg Gamunex-C Lot NKLG1 (antibody)
MFI [1]: 8430 MFI
MFI [2]: 7550 MFI
MFI (HLA-B*8201 (B82) (human) [3]): 6060 MFI
MFI [5]: 10800 MFI
MFI [6]: 12000 MFI
MFI [33]: 8460 MFI
MFI [34]: 7100 MFI
MFI [7]: 11800 MFI
MFI [8]: 6560 MFI
MFI [12]: 7530 MFI
MFI [14]: 7240 MFI
MFI [15]: 4260 MFI
Difference % [16]: -58%
Difference % [17]: -47%
Difference % (HLA-B*8201 (B82) (human) [18]): -55%
Difference % [35]: -2%
Difference % [36]: -65%
Difference % [20]: -52%
Difference % [21]: -32%
Difference % [22]: -54%
Difference % [23]: -6%
Difference % [25]: -32%
Difference % [26]: -28%
Difference % [27]: -51%
Difference % [28]: -40%
Difference % [29]: -2%
Difference % [30]: -45%
Difference % [31]: 1%
MFI (HLA-B*1502 (B75) (human)): 1520 MFI
MFI (HLA-B*1510 (B71) (human)): 1430 MFI
MFI (HLA-B*1512 (B76) (human)): 816 MFI
MFI (HLA-B*1302 (B13) (human)): 3100 MFI
MFI (HLA-B*1516 (B63) (human)): 3760 MFI
MFI (HLA-B*1511 (B75) (human)): 4060 MFI
MFI [32]: 10800 MFI
MFI (HLA-B*0702 (B7) (human)): 1540 MFI
MFI (HLA-B*1513 (B77) (human)): 4270 MFI
MFI (HLA-B*1503 (B72) (human)): 2380 MFI
